*1 amine or outer side, *2 acyl side, *3 side chain or, on linkers, in order; H or OH if unused. Where a SMILES comes first, the peptide text is derived from it. Primed or numbered codes have the meaning given here. Where no end group is shown, it is not given here. [ ]: non-standard residue; d: D form. The star is where a group is joined. Pqa = 4-oxo-6-(1-piperazinyl)-3(4H)-quinazoline-acetic acid (CAS 889958-08-1), O=C(Cn1cnc2ccc(N3CCN([*:1])CC3)cc2c1=O)[*:2]; Pqa″ = 4-oxo-6-(1-piperazinyl)-3(4H)-quinazoline-acetic acid, O=C(Cn1cnc2ccc(N3CCN([*:1])CC3)cc2c1=O)[*:2]; Tyr(2,6-F2) = N[C@@H](Cc1c(F)cc(O)cc1F)C(=O)O; NMeR = CN[C@@H](CCCNC(=N)N)C(=O)O; Piv = CC(C)(C)C(=O)*; Bz = O=C(c1ccccc1)*

The test system of the first experiment is H322M cells. Nature of the experiment: CytoTox-Glo cytotoxicity assay. The class given is cell-based, human. Conditions: CytoTox-Glo. The procedure: To evaluate whether additions or alterations of the peptide Melittin, FALLv1 and FALLv2 by digoxygenin alters its biological activity, we performed in vitro assays. As these peptides are cytotoxic, their biological activity can easily be analyzed by monitoring the number of dead cells. To measure this number, the CytoTox-Glo assay (Promega Madison, WI) was used. Table 2 lists results of these CytoTox-Glo-assays that were performed to assess the biological activity of the Melittin, Fallv1 and Fallv2 peptides and their DIG-modified variants. For these assays, H322M cells were seeded at a density of 15.000 cells per well in 96 well plates. The cells were incubated for 24 hours at 37° C., 5% CO2 and 85% humidity in RPMI with 10% FCS, Na+ Pyrovate, L-Glutamine and NEAA mix. The peptide and it's DIG-modified variant were then added to the cells in the concentrations indicated. The cells were incubated for further 48 hours. After this period, the cells were treated with the CytoTox-Glo-assay reagent according to the manufacturers instructions. In brief, this assay detects dead cells via the presence of a protease in the medium that cleaves a […] peptide in the reagent. The luminescence of this assay therefore represents dead cells. The 96 well plates were then analyzed in a InfiniteF200 luminescence reader (Tecan Austria, Groding). […] Not only covalent coupling to haptens, but also complexation of peptides to large antibody molecules may influence their biological activity. Because IgG-derived molecules are large proteins (10-40 fold the size of peptides), it cannot a priori be excluded that such molecules may sterically hinder accessibility of peptide and therefore interfere with biological activity. To address this topic, we analyzed the in vitro activity of peptide-antibody complexes for the cytotoxic peptides FALLv1 and Fam5b. Again, we made use of the fact that these peptide are cytotoxic towards tumor cell lines and therefore tested their functionality in cytotoxicity and viability assays as described above. […] Moreover, utilizing bispecific antibodies for targeting such peptides to tumor cells, we could show increased peptide-mediated cytotoxicity towards targeted cells compared to nontargeted cells (as shown in PCT/EP2010/004051).
Turning to `CC[C@H](C)[C@H](NC(=O)[C@H](CCCCN)NC(=O)[C@H](CCC(=O)O)NC(=O)[C@H](CCCCN)NC(=O)[C@H](CO)NC(=O)[C@H](CCCCN)NC(=O)[C@H](CCCNC(=N)N)NC(=O)[C@H](Cc1ccccc1)NC(=O)[C@H](Cc1ccccc1)NC(=O)[C@H](CC(=O)O)NC(=O)CNC(=O)[C@H](CC(C)C)NC(=O)[C@H](CC(C)C)NC(=O)[C@H](C)NC(=O)[C@H](Cc1ccccc1)NC(=O)[C@H](CCCNC(=N)N)NC(=O)[C@H](CCCCN)NC(=O)[C@@H](N)CC(N)=O)C(=O)NCC(=O)N[C@@H](CCCCN)C(=O)N[C@@H](CCC(=O)O)C(=O)N[C@@H](Cc1ccccc1)C(=O)N[C@@H](CCCCN)C(=O)N[C@@H](CCCNC(=N)N)C(=O)N[C@H](C(=O)N[C@H](C(=O)N[C@@H](CCC(N)=O)C(=O)N[C@@H](CCCNC(=N)N)C(=O)N[C@H](C(=O)N[C@@H](CCCCN)C(=O)N[C@@H](CC(=O)O)C(=O)N[C@@H](Cc1ccccc1)C(=O)N[C@@H](CC(C)C)C(=O)N[C@@H](CCCNC(=N)N)C(=O)N[C@@H](CC(N)=O)C(=O)N[C@@H](CC(C)C)C(=O)N[C@H](C(=O)N1CCC[C@H]1C(=O)N[C@@H](CCCNC(=N)N)C(N)=O)C(C)C)[C@@H](C)CC)C(C)C)[C@@H](C)CC` [FALLv2] (H-NKRFALLGDFFRKSKEKIGKEFKRIVQRIKDFLRNLVPR-NH2; N-terminus and C-terminus assumed), the “activity upon conjugation to digoxygenin” value is on record as “similarly retained”.

Take `CC[C@H](C)[C@H](NC(=O)[C@H](CCCCN)NC(=O)[C@H](CCC(=O)O)NC(=O)[C@H](CCCCN)NC(=O)[C@H](CO)NC(=O)[C@H](CCCCN)NC(=O)[C@H](CCCNC(=N)N)NC(=O)[C@H](Cc1ccccc1)NC(=O)[C@H](Cc1ccccc1)NC(=O)[C@H](CC(=O)O)NC(=O)CNC(=O)[C@H](CC(C)C)NC(=O)[C@H](CC(C)C)NC(=O)[C@H](C)NC(=O)[C@@H](N)Cc1ccccc1)C(=O)NCC(=O)N[C@@H](CCCCN)C(=O)N[C@@H](CCC(=O)O)C(=O)N[C@@H](Cc1ccccc1)C(=O)N[C@@H](CCCCN)C(=O)N[C@@H](CCCNC(=N)N)C(=O)N[C@H](C(=O)N[C@H](C(=O)N[C@@H](CCC(N)=O)C(=O)N[C@@H](CCCNC(=N)N)C(=O)N[C@H](C(=O)N[C@@H](CCCCN)C(=O)N[C@@H](CC(=O)O)C(=O)N[C@@H](Cc1ccccc1)C(=O)N[C@@H](CC(C)C)C(=O)N[C@@H](CCCNC(=N)N)C(=O)N[C@@H](CC(N)=O)C(=O)N[C@@H](CC(C)C)C(=O)N[C@H](C(=O)N1CCC[C@H]1C(=O)N[C@@H](CCCNC(=N)N)C(=O)N[C@H](C(=O)N[C@@H](CCC(=O)O)C(=O)N[C@@H](CO)C(N)=O)[C@@H](C)O)C(C)C)[C@@H](C)CC)C(C)C)[C@@H](C)CC` [FALLv1]: the “activity upon conjugation to digoxygenin” value is on record as “similarly retained”.

The experiment is the same for the next values; noted with them: cytotoxicity and viability assays, tumor cell lines.
“QHRYQQLGAGLKVLFKKTHRILRRLFNLAK (listed as Homo sapiens) [Fam5b]”: the “biological activity of digoxigenated peptide complexed with digoxigenin binding antibody derivatives” value is reported as “retain their biological activities”.

`CC[C@H](C)[C@H](NC(=O)[C@H](CCCCN)NC(=O)[C@H](CCC(=O)O)NC(=O)[C@H](CCCCN)NC(=O)[C@H](CO)NC(=O)[C@H](CCCCN)NC(=O)[C@H](CCCNC(=N)N)NC(=O)[C@H](Cc1ccccc1)NC(=O)[C@H](Cc1ccccc1)NC(=O)[C@H](CC(=O)O)NC(=O)CNC(=O)[C@H](CC(C)C)NC(=O)[C@H](CC(C)C)NC(=O)[C@H](C)NC(=O)[C@@H](N)Cc1ccccc1)C(=O)NCC(=O)N[C@@H](CCCCN)C(=O)N[C@@H](CCC(=O)O)C(=O)N[C@@H](Cc1ccccc1)C(=O)N[C@@H](CCCCN)C(=O)N[C@@H](CCCNC(=N)N)C(=O)N[C@H](C(=O)N[C@H](C(=O)N[C@@H](CCC(N)=O)C(=O)N[C@@H](CCCNC(=N)N)C(=O)N[C@H](C(=O)N[C@@H](CCCCN)C(=O)N[C@@H](CC(=O)O)C(=O)N[C@@H](Cc1ccccc1)C(=O)N[C@@H](CC(C)C)C(=O)N[C@@H](CCCNC(=N)N)C(=O)N[C@@H](CC(N)=O)C(=O)N[C@@H](CC(C)C)C(=O)N[C@H](C(=O)N1CCC[C@H]1C(=O)N[C@@H](CCCNC(=N)N)C(=O)N[C@H](C(=O)N[C@@H](CCC(=O)O)C(=O)N[C@@H](CO)C(N)=O)[C@@H](C)O)C(C)C)[C@@H](C)CC)C(C)C)[C@@H](C)CC` [FALLv1]: the “biological activity of digoxigenated peptide complexed with digoxigenin binding antibody derivatives” value was “retain their biological activities”.

Another experiment concerns the target T1, Y2R (Homo sapiens, UniProt P49146).
T1 sequence (P49146 1-381): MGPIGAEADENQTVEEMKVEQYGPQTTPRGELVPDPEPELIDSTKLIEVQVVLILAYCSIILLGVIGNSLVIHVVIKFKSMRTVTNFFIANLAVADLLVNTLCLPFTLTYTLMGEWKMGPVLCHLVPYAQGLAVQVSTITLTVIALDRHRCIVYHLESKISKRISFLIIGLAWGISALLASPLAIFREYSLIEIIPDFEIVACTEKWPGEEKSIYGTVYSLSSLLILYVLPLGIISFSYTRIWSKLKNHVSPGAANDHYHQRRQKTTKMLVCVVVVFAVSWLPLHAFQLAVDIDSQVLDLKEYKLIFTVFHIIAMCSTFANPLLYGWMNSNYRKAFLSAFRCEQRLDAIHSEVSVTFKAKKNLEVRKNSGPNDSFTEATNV
Test: not given
Conditions: values of WO 2007/065808; read-out: Y2R EC50 (nM) cAMP; cited from earlier work.
For the compound “Ac-IK-Pqa-RHYLNWVTRQ(N-methyl)R(2-6 di F)Y (Ac-IK[Pqa]RHYLNWVTRQ[NMeR][Tyr(2,6-F2)]) [Example 27]”, the EC50 (in general, the midpoint of the concentration-response curve) is 0.07 nM.

For “IK-Pqa-RHYLNLVTRQ(N-methyl)RY [Example 5]”, the concentration for a half-maximal effect (EC50) was 0.42 nM.

In the case of “Trimetylacetyl-IK-Pqa-RHYLNWVTRQ(N-methyl)RY (Piv-IK[Pqa″]RHYLNWVTRQ[NMeR]Y) [Example 30]”, the concentration giving a half-maximal response (EC50) was 0.26 nM.

With “IK-Pqa-RHYLNLVTRQ(N-methyl)RW (IK[Pqa]RHYLNLVTRQ[NMeR]W; ends and bridges not checked) [Example 21]”, the EC50 was 1.06 nM.

As for “IK-Pqa-RHYLNLVTRQ(N-methyl)R(4-CF3)Phe [Example 16]”, the half-maximal effective concentration (EC50) was 3.55 nM.

In the case of “Adamtyl-IK-Pqa-RHYLNWVTRQ(N-methyl)RY (adamantyl-IK[Pqa]RHYLNWVTRQ[NMeR]Y; ends and bridges not checked) [Example 33]”, the concentration for a half-maximal effect (EC50) was 2.9 nM.

“IK-Pqa-RHYLNLVTRQ(N-methyl)RCha [Example 20]”: the 50% effective concentration (EC50) is 0.5 nM.

As to “IK-Pqa-RHYLNLVTRQ(N-methyl)RF(O—CH3) [Example 11]”, the EC50 is 0.55 nM.

For the compound “IK-Pqa-RHYLNLVTRQ(N-methyl)R(2)Nal [Example 23]”, the EC50 is 2.4 nM.

Take “IK-Pqa-RHYLNLVTRQ(N-methyl)R(3-F)Phe [Example 17]”: the half-maximal effective concentration (EC50) is 0.75 nM.

In the case of “IK-Pqa-RHYLNLVTRQ(N-methyl)R(m-)Y [Example 6]”, the EC50 is 1.5 nM.

Turning to “IK-Pqa-RHYLNLVTRQ(N-methyl)R(1)Nal [Example 22]”, the EC50 is 1.14 nM.

As to “IK-P qa-RHYLNLVTRQ (N-methyl)R(2,3.4,5,6-Penta-F)Phe [Example 18]”, the half-maximal effective concentration (EC50) is 2.5 nM.

With “IK-Pqa-RHYLNLVTRQR-C-α-Me-Tyr [Example 24]”, the EC50 was 1.35 nM.

Consider “Benzoyl-IK-Pqa-RHYLNWVTRQ(N-methyl)RY (Bz-IK[Pqa]RHYLNWVTRQ[NMeR]Y; ends and bridges not checked) [Example 32]”, for which the EC50 is 0.66 nM.

As to “IK-Pqa-RHYLNLVTRQ(N-methyl)R(3.4-diC1)Phe [Example 19]”, the concentration for a half-maximal effect (EC50) was 1.47 nM.

As to “INle-Pqa-RHYLNWVTRQ(N-methyl)RY (IXXRHYLNWVTRQRY; Nle, Pqa linker, N-methyl Arg) [Example 26]”, the EC50 was 0.108 nM.

As for “Cyclohexyl-IK-Pqa-RHYLNWVTRQ(N-methyl)RY (cyclohexyl-IK[Pqa]RHYLNWVTRQ[NMeR]Y; ends and bridges not checked) [Example 31]”, the EC50 was 1.37 nM.

For the compound “IK-Pqa-RHYLNLVTRQ (N-methyl)R(3-5 di F)Y [Example 8]”, the 50% effective concentration (EC50) is 0.36 nM.

“IK-Pqa-RHYLNLVTRQ(N-methyl)RF [Example 12]”: the EC50 was 0.69 nM.

As for “IK-Pqa-RHYLNWVTRQ(N-methyl)RY (IK[Pqa]RHYLNWVTRQ[NMeR]Y; ends and bridges not checked) [Example 25]”, the half-maximal effective concentration (EC50) was 0.25 nM.

For the compound “IK-Pqa-RHYLNLVTRQ(N-methyl)R(2-6 di F)Y [Example 9]”, the EC50 is 0.19 nM.

In the case of “Pentyl-IK-Pqa-RHYLNWVTRQ(N-methyl)RY (Pentyl-IK[Pqa″]RHYLNWVTRQ[NMeR]Y) [Example 29]”, the EC50 is 0.51 nM.

Source of the values: patent US20130280279A1, “PHARMACEUTICAL COMPOSITION OF A COMPLEX OF AN ANTI-DIG ANTIBODY AND DIGOXIGENIN THAT IS CONJUGATED TO A PEPTIDE” (HOFFMANN-LA ROCHE INC., priority 2011, published 2013).
